Measurements as given in publication PMC7456325.

Target: T. suis B ΔC26 (Trichuris suis BCL-2-like protein B, C-terminal truncation) (Trichuris suis)
Assay: MST; Monolith NT.115; protein labelled with NHS RED, unlabelled synthetic peptide diluted in phosphate-buffered saline; 30 min incubation; 25 °C; 40% LED and 40% MST power; three independent experiments, single binding model

Binder: PILPEVNKTALCMRAMGEVFEDRYKT [T. suis protein B BH3 peptide]
- Kd: > 50 µM

Binder: SVRAPIRLCDAMFLMCDLFERKFHDR [T. suis protein A BH3 peptide]
- Kd: > 50 µM
